# Assay results: paper PMC8688422
# Experiments:
# [1] = target: galectin-1 C3S (UniProt P09382)
# [2] = target: galectin-1 (UniProt P09382); test: SPR; BIAcore 1000, galectin-1 amine-coupled to CM5 chip, analyte injected at different concentrations, 25 °C, HBS-EP (10 mM HEPES, 150 mM NaCl, 3 mM EDTA, 0.005% P20) pH 7.4; single association, biphasic dissociation
substance,measurement,setting,value
platelet factor 4 (PF4/CXCL4) (ligand),fluorescence anisotropy: binding affinity of galectin-1 C3S for the fluorescein-tagged tdga-probe with 8 µM CXCL4 against galectin-1 alone,[1],10 fold
same,fluorescence anisotropy: inhibitory potency of asialofetuin (ASF) on the galectin-1 C3S/tdga-probe interaction with 8 µM CXCL4 against without,[1],> 600 fold
same,K1 (kd1/ka),[2],9 µM
same,K2 (kd2/ka),[2],483 nM
same,kd1 (first phase of the biphasic dissociation),[2],0.092 s⁻¹
same,kd2 (second phase of the biphasic dissociation),[2],0.005 s⁻¹
same,kon,[2],10200 M⁻¹ s⁻¹
same,stoichiometry N (CXCL4 per galectin-1),[2],2
